# Experimental data: PMC4830966, “Molecular basis of the STIL coiled coil oligomerization explains its requirement for de-novo formation of centrosomes in mammalian cells” (Scientific Reports, 2016)
# Changes are numbered by the printed parent chain. Names may count otherwise.
# B1: WT STIL CCD peptide (STIL amino acids 718-749) (peptide)
# peptide: LSPDAYRFLTEQDRQLRLLQAQIQRLLEAQSL
# notes: also called WT CCD; STIL coiled coil peptide; source: synthetic peptide
# B2: STIL CCD L718E peptide (peptide)
# peptide: B1 peptide with L1E
# notes: source: synthetic peptide
# B3: STIL CCD L736E peptide (peptide)
# peptide: B1 peptide with L19E
# notes: source: synthetic peptide
# Legend:
# [1] = molecular target: the molecule itself; experiment: SEC; 35 μM WT STIL CCD peptide on Superdex30 analytical column, 25 mM sodium phosphate buffer pH 6.8 (IS = 40 mM)
# [2] = molecular target: the molecule itself; experiment: SEC; 250 µl of 100 μM peptide on Superdex30 analytical column, 25 mM sodium phosphate buffer pH 6.8 (IS = 40 mM); comparison of elution profiles
# [3] = molecular target: the molecule itself; experiment: SEC; 500 μM WT STIL CCD peptide on Superdex30 analytical column, 25 mM sodium phosphate buffer pH 6.8 (IS = 40 mM)
protein,measurement,setting,value
B1,stoichiometry N,[1],~2
same,stoichiometry N,[2],~4
same,stoichiometry N,[3],4
B2,stoichiometry N,[2],~2
B3,stoichiometry N,[2],~2
